# Results as given in patent US20230257470A1 (published 2023).
# Numbering of substitutions follows the chain as printed.
# T1: human FcγRIIb (human, UniProt P31994 43-217, limits assumed)
# T1 construct: also called FcgRIIb; FcγIIB
# T1 sequence: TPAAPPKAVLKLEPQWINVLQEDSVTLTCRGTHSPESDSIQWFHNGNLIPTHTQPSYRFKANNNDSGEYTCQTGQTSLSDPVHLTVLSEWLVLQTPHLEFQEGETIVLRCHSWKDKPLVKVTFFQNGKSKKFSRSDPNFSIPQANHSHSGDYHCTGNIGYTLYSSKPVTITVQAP
# T2: human FcγRIIa(R) (human, UniProt P12318 36-217)
# T2 construct: also called FcgRIIaR; FcγRIIa type R
# T2 chain: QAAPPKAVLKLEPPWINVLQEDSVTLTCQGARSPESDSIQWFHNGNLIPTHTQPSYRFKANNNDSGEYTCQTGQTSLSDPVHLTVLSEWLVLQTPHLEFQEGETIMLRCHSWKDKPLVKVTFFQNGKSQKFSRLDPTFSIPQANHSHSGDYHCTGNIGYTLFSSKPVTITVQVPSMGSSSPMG
# T3: human FcγRIIa(H) (human, UniProt P12318 36-217)
# T3 construct: also called FcgRIIaH; FcγRIIa type H
# T3 sequence: T2 chain with R133H
# B1: GpH7-B3/GpL16-k0 variant D270P (antibody, human IgG1)
# heavy: not shown
# light: DIVMTQSPLSLPVTPGEPASISCQASESLVHSNRNTYLHWYLQKPGQSPQLLIYKVSNRFSGVPDRFSGSGSGTDFTLKISRVEAEDVGVYYCSQNTHVPPTFGQGTKVEIE
# notes: also called B3 variant; copies: 2 + 2
# B2: GpH7-B3/GpL16-k0 variant D270A (antibody, human IgG1)
# heavy: not shown
# light: B1 light
# notes: as for B1
# B3: GpH7-B3/GpL16-k0 variant D270M (antibody, human IgG1)
# heavy: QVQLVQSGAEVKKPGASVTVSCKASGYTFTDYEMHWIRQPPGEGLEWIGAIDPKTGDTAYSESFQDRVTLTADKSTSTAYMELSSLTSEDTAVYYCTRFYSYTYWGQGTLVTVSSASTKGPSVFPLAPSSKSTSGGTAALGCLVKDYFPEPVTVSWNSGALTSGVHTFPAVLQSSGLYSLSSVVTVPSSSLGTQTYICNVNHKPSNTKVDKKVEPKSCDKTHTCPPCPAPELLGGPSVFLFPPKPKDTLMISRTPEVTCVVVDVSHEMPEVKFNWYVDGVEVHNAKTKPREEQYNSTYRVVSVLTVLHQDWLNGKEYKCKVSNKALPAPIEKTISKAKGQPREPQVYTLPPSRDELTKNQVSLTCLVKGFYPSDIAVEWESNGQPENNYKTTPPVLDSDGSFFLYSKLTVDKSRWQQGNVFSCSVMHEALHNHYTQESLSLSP
# light: B1 light
# notes: as for B1
# B4: GpH7-B3/GpL16-k0 variant P271F (antibody, human IgG1)
# heavy: not shown
# light: B1 light
# notes: as for B1
# B5: GpH7-B3/GpL16-k0 variant D270V (antibody, human IgG1)
# heavy: not shown
# light: B1 light
# notes: as for B1
# B6: GpH7-B3/GpL16-k0 variant D270L (antibody, human IgG1)
# heavy: not shown
# light: B1 light
# notes: as for B1
# B7: GpH7-B3/GpL16-k0 variant D270F (antibody, human IgG1)
# heavy: not shown
# light: B1 light
# notes: as for B1
# B8: GpH7-B3/GpL16-k0 variant D270K (antibody, human IgG1)
# heavy: not shown
# light: B1 light
# notes: as for B1
# B9: GpH7-B3/GpL16-k0 variant D270W (antibody, human IgG1)
# heavy: not shown
# light: B1 light
# notes: as for B1
# B10: GpH7-B3/GpL16-k0 variant D270R (antibody, human IgG1)
# heavy: not shown
# light: B1 light
# notes: as for B1
# B11: GpH7-B3/GpL16-k0 variant D270Q (antibody, human IgG1)
# heavy: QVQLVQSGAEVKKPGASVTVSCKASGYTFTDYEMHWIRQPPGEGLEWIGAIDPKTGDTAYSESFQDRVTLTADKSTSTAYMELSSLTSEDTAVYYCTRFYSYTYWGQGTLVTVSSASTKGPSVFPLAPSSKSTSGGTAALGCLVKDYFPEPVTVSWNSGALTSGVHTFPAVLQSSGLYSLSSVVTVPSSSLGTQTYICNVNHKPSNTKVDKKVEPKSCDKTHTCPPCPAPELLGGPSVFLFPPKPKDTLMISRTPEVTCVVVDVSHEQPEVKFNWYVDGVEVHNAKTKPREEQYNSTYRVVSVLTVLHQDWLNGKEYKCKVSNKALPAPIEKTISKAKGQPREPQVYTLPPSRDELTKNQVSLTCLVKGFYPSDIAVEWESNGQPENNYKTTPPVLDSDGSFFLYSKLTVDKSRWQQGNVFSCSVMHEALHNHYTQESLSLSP
# light: B1 light
# notes: as for B1
# B12: GpH7-B3/GpL16-k0 variant D270Y (antibody, human IgG1)
# heavy: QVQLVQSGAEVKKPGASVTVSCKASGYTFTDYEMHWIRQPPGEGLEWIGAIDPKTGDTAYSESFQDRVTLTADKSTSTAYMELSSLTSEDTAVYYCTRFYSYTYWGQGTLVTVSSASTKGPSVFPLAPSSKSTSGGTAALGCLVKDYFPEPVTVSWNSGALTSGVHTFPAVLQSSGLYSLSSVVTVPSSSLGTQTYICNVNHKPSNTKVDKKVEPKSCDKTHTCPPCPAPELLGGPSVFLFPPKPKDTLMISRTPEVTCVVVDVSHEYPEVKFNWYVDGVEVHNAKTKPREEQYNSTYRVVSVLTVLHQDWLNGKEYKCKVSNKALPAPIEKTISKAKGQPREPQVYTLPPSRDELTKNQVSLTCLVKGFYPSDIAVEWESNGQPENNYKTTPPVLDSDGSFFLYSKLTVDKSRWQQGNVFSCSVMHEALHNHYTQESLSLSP
# light: B1 light
# notes: as for B1
# B13: GpH7-B3/GpL16-k0 variant D270S (antibody, human IgG1)
# heavy: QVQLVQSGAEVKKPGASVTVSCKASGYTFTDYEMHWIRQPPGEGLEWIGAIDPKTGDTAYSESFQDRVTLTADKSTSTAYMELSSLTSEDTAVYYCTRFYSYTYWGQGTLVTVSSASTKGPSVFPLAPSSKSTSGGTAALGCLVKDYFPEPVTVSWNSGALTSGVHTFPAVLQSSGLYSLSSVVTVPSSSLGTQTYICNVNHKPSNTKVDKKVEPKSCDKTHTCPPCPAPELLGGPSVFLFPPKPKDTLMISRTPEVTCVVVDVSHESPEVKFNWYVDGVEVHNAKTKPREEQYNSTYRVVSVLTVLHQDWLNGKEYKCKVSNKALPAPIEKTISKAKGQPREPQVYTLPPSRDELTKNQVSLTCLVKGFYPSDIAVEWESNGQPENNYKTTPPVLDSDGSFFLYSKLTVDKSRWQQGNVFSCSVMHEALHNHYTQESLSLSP
# light: B1 light
# notes: as for B1
# B14: GpH7-B3/GpL16-k0 variant P271H (antibody, human IgG1)
# heavy: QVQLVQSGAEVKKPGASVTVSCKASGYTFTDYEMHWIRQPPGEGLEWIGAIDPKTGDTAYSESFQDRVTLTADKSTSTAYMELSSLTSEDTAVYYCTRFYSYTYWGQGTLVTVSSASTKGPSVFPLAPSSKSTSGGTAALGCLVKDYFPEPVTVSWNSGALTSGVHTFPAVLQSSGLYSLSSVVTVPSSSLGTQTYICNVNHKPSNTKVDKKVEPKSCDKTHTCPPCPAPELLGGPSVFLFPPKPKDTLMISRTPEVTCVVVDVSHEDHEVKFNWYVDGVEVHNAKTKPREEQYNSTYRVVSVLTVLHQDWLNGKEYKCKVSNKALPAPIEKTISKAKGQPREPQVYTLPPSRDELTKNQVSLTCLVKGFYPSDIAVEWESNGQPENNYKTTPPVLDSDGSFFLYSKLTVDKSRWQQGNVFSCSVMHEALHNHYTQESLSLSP
# light: B1 light
# notes: as for B1
# B15: GpH7-B3/GpL16-k0 variant P271R (antibody, human IgG1)
# heavy: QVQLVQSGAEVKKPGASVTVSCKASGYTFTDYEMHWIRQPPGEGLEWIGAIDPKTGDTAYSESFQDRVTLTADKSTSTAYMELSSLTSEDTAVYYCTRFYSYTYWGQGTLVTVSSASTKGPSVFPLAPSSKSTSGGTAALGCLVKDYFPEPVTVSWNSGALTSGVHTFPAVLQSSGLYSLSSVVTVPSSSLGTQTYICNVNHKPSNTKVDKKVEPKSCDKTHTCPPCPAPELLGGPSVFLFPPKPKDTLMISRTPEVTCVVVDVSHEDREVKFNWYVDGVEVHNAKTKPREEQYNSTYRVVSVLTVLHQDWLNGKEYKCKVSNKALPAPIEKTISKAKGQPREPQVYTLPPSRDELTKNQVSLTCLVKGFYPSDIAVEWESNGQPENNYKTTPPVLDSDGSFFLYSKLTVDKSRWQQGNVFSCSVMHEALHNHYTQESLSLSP
# light: B1 light
# notes: as for B1
# B16: GpH7-B3/GpL16-k0 variant D270T (antibody, human IgG1)
# heavy: not shown
# light: B1 light
# notes: as for B1
# B17: GpH7-B3/GpL16-k0 variant D270H (antibody, human IgG1)
# heavy: not shown
# light: B1 light
# notes: as for B1
# B18: GpH7-B3/GpL16-k0 variant P271S (antibody, human IgG1)
# heavy: not shown
# light: B1 light
# notes: as for B1
# B19: GpH7-B3/GpL16-k0 variant Y296P (antibody, human IgG1)
# heavy: not shown
# light: B1 light
# notes: as for B1
# B20: GpH7-B3/GpL16-k0 variant D270G (antibody, human IgG1)
# heavy: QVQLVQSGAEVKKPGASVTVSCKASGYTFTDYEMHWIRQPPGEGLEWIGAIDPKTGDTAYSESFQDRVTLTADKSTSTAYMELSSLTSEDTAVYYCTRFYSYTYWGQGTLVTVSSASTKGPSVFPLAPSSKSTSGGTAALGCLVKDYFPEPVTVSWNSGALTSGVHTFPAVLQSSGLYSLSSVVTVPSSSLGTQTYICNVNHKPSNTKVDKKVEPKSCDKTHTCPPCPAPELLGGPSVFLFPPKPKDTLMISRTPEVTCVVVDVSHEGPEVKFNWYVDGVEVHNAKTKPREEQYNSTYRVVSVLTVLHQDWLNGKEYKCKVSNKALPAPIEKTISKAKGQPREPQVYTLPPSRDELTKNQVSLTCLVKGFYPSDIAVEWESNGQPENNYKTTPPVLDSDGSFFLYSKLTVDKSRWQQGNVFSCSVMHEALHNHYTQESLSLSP
# light: B1 light
# notes: as for B1
# B21: GpH7-B3/GpL16-k0 variant S298W (antibody, human IgG1)
# heavy: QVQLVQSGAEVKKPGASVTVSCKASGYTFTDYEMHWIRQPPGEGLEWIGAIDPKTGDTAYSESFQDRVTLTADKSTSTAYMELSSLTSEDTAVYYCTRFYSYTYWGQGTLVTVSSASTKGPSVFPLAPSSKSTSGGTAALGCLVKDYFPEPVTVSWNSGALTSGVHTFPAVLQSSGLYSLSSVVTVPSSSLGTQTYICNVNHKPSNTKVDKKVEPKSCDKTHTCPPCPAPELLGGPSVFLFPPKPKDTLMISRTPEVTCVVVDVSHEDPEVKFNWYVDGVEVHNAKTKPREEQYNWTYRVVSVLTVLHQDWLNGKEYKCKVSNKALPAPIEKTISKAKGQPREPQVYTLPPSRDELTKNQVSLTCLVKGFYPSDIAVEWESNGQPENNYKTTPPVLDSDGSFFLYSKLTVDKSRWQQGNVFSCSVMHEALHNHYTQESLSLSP
# light: B1 light
# notes: as for B1
# B22: GpH7-B3/GpL16-k0 variant D270N (antibody, human IgG1)
# heavy: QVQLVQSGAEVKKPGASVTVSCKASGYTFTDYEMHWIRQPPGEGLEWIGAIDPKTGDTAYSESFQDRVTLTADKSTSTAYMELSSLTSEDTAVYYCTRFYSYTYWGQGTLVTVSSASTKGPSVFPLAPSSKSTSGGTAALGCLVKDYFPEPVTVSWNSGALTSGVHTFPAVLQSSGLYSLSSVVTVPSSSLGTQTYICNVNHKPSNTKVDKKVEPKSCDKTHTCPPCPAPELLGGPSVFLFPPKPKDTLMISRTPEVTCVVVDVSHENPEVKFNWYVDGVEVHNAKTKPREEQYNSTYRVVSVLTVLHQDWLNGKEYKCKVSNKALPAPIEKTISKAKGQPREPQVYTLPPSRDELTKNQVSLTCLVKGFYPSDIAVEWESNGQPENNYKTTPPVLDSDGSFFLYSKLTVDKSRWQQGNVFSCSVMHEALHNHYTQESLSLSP
# light: B1 light
# notes: as for B1
# B23: GpH7-B3/GpL16-k0 variant D270I (antibody, human IgG1)
# heavy: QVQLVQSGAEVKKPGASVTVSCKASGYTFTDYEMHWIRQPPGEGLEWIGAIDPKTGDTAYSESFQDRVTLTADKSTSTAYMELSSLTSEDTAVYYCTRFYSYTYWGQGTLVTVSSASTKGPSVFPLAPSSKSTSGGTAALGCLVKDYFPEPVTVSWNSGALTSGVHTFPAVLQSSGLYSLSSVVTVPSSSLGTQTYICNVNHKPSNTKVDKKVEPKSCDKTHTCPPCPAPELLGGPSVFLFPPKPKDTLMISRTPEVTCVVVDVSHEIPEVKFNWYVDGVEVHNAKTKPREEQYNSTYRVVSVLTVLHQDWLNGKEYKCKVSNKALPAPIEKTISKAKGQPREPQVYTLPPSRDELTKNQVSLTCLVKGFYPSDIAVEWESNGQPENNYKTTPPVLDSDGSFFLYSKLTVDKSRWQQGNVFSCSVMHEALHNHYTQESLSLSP
# light: B1 light
# notes: as for B1
# Molecular target: T4, human FcγRIa (human, UniProt P12314 16-292, limits assumed)
# T4 construct: also called FcgRIa; CD64
# T4 sequence (P12314 16-292 limits assumed): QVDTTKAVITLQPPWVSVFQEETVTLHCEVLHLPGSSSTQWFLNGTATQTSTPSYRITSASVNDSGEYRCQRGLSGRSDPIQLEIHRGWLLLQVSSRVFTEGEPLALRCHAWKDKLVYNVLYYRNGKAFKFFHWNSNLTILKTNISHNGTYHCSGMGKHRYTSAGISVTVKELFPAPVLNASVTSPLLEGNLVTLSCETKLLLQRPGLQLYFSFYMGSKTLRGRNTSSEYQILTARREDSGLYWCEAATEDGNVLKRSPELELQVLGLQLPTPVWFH
# Experiment: SPR (Biacore), antibody captured, FcγR as analyte; amount bound / that of GpH7-B3/GpL16-k0 x 100;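 note: FcγR binding response divided by the captured antibody amount before comparison, measured at 25 °C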
# Description: (§1) Interaction between each modified antibody and Fcγ receptor prepared in the manner described above was analyzed using the BIACORE™ T100 surface plasmon resonance system (GE Healthcare), BIACORE™ T200 surface plasmon resonance system (GE Healthcare), BIACORE™ A100 surface plasmon resonance system or BIACORE™ 4000 surface plasmon resonance system. HBS-EP+(GE Healthcare) was used for the running buffer, and measurements were carried out at 25° C. The chips used were chips in which antigen peptides, Protein A (Thermo Scientific), Protein A/G (Thermo Scientific) or Protein L (ACTIGEN® protein (Alltech or BioVision) were immobilized on the Series S Sensor Chip CM5 (GE Healthcare) or Series S Sensor Chip CM4 (GE Healthcare) by amine coupling, or chips in which preliminarily biotinylated antigen peptides were allowed to interact and then immobilized on the Series S Sensor Chip SA (certified) (GE Healthcare). The target antibodies were captured on these sensor chips, Fcγ receptor diluted with the running buffer was allowed to interact, followed by measurement of the amount of bound antibody. The amounts bound were compared between antibodies. However, since the amount of Fcγ receptor bound depends on the amount of captured antibody, the values used for comparison were first corrected by dividing the amount of Fcγ receptor bound by the captured amount of each antibody. Through reaction with 10 mM glycine-HCl at pH 1.5, the sensor chips were regenerated by washing off antibody captured on the sensor chips and used repeatedly.
# (§2) Binding strength was evaluated according to the following method based on the results of analyzing the interaction with each FcγR. […] That value was then further multiplied by 100, and the resulting value was used as an indicator of relative binding activity to each FcγR.
row,Binder,relative binding activity
1,B1,64 GpH7-B3/GpL16-k0 = 100
2,B2,87 GpH7-B3/GpL16-k0 = 100
3,B3,90 GpH7-B3/GpL16-k0 = 100
4,B4,99 GpH7-B3/GpL16-k0 = 100
5,B5,84 GpH7-B3/GpL16-k0 = 100
6,B6,90 GpH7-B3/GpL16-k0 = 100
7,B7,88 GpH7-B3/GpL16-k0 = 100
8,B8,45 GpH7-B3/GpL16-k0 = 100
9,B9,74 GpH7-B3/GpL16-k0 = 100
10,B10,45 GpH7-B3/GpL16-k0 = 100
11,B11,82 GpH7-B3/GpL16-k0 = 100
12,B12,78 GpH7-B3/GpL16-k0 = 100
13,B13,73 GpH7-B3/GpL16-k0 = 100
14,B14,98 GpH7-B3/GpL16-k0 = 100
15,B15,100 GpH7-B3/GpL16-k0 = 100
16,B16,81 GpH7-B3/GpL16-k0 = 100
17,B17,70 GpH7-B3/GpL16-k0 = 100
18,B18,99 GpH7-B3/GpL16-k0 = 100
19,B19,45 GpH7-B3/GpL16-k0 = 100
20,B20,82 GpH7-B3/GpL16-k0 = 100
21,B21,69 GpH7-B3/GpL16-k0 = 100
22,B22,68 GpH7-B3/GpL16-k0 = 100
23,B23,88 GpH7-B3/GpL16-k0 = 100

# Molecular target: T1, human FcγRIIb
# Experiment: as above
# Description: as §1, §2
row,Binder,relative binding activity
1,B1,1 GpH7-B3/GpL16-k0 = 100
2,B2,5 GpH7-B3/GpL16-k0 = 100
3,B3,6 GpH7-B3/GpL16-k0 = 100
4,B4,38 GpH7-B3/GpL16-k0 = 100
5,B5,3 GpH7-B3/GpL16-k0 = 100
6,B6,3 GpH7-B3/GpL16-k0 = 100
7,B7,5 GpH7-B3/GpL16-k0 = 100
8,B8,-5 GpH7-B3/GpL16-k0 = 100
9,B9,-2 GpH7-B3/GpL16-k0 = 100
10,B10,-5 GpH7-B3/GpL16-k0 = 100
11,B11,0 GpH7-B3/GpL16-k0 = 100
12,B12,-2 GpH7-B3/GpL16-k0 = 100
13,B13,-1 GpH7-B3/GpL16-k0 = 100
14,B14,53 GpH7-B3/GpL16-k0 = 100
15,B15,87 GpH7-B3/GpL16-k0 = 100
16,B16,2 GpH7-B3/GpL16-k0 = 100
17,B17,-2 GpH7-B3/GpL16-k0 = 100
18,B18,82 GpH7-B3/GpL16-k0 = 100
19,B19,7 GpH7-B3/GpL16-k0 = 100
20,B20,3 GpH7-B3/GpL16-k0 = 100
21,B22,-2 GpH7-B3/GpL16-k0 = 100
22,B23,1 GpH7-B3/GpL16-k0 = 100

# Molecular target: T2, human FcγRIIa(R)
# Experiment: as above
# Description: as §1, §2
row,Binder,relative binding activity
1,B1,-3 GpH7-B3/GpL16-k0 = 100
2,B2,3 GpH7-B3/GpL16-k0 = 100
3,B3,7 GpH7-B3/GpL16-k0 = 100
4,B4,49 GpH7-B3/GpL16-k0 = 100
5,B5,1 GpH7-B3/GpL16-k0 = 100
6,B6,6 GpH7-B3/GpL16-k0 = 100
7,B7,5 GpH7-B3/GpL16-k0 = 100
8,B8,-4 GpH7-B3/GpL16-k0 = 100
9,B9,-2 GpH7-B3/GpL16-k0 = 100
10,B10,-5 GpH7-B3/GpL16-k0 = 100
11,B11,2 GpH7-B3/GpL16-k0 = 100
12,B12,-2 GpH7-B3/GpL16-k0 = 100
13,B13,0 GpH7-B3/GpL16-k0 = 100
14,B14,58 GpH7-B3/GpL16-k0 = 100
15,B15,89 GpH7-B3/GpL16-k0 = 100
16,B16,1 GpH7-B3/GpL16-k0 = 100
17,B17,0 GpH7-B3/GpL16-k0 = 100
18,B18,83 GpH7-B3/GpL16-k0 = 100
19,B19,10 GpH7-B3/GpL16-k0 = 100
20,B20,3 GpH7-B3/GpL16-k0 = 100
21,B21,19 GpH7-B3/GpL16-k0 = 100
22,B22,-1 GpH7-B3/GpL16-k0 = 100
23,B23,3 GpH7-B3/GpL16-k0 = 100

# Molecular target: T3, human FcγRIIa(H)
# Experiment: as above
# Description: as §1, §2
row,Binder,relative binding activity
1,B1,0 GpH7-B3/GpL16-k0 = 100
2,B2,66 GpH7-B3/GpL16-k0 = 100
3,B3,57 GpH7-B3/GpL16-k0 = 100
4,B4,55 GpH7-B3/GpL16-k0 = 100
5,B5,37 GpH7-B3/GpL16-k0 = 100
6,B6,61 GpH7-B3/GpL16-k0 = 100
7,B7,62 GpH7-B3/GpL16-k0 = 100
8,B8,16 GpH7-B3/GpL16-k0 = 100
9,B9,38 GpH7-B3/GpL16-k0 = 100
10,B10,11 GpH7-B3/GpL16-k0 = 100
11,B11,78 GpH7-B3/GpL16-k0 = 100
12,B12,53 GpH7-B3/GpL16-k0 = 100
13,B13,49 GpH7-B3/GpL16-k0 = 100
14,B14,58 GpH7-B3/GpL16-k0 = 100
15,B15,99 GpH7-B3/GpL16-k0 = 100
16,B16,38 GpH7-B3/GpL16-k0 = 100
17,B17,53 GpH7-B3/GpL16-k0 = 100
18,B18,67 GpH7-B3/GpL16-k0 = 100
19,B19,8 GpH7-B3/GpL16-k0 = 100
20,B20,29 GpH7-B3/GpL16-k0 = 100
21,B21,17 GpH7-B3/GpL16-k0 = 100
22,B22,34 GpH7-B3/GpL16-k0 = 100
23,B23,43 GpH7-B3/GpL16-k0 = 100

# Molecular target: T5, human FcγRIIIa(F) (human, UniProt P08637 17-208, limits assumed)
# T5 construct: also called FcgRIIIaF; FcγRIIIa allotype F158
# T5 sequence (P08637 other isoform, or with tags, fused parts or gaps limits assumed): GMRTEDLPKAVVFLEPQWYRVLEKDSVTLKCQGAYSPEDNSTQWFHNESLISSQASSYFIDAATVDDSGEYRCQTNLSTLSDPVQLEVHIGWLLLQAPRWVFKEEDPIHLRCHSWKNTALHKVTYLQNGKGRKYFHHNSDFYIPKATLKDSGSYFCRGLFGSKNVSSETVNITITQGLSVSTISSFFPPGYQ
# Experiment: as above
# Description: as §1, §2
row,Binder,relative binding activity
1,B1,-1 GpH7-B3/GpL16-k0 = 100
2,B2,23 GpH7-B3/GpL16-k0 = 100
3,B3,29 GpH7-B3/GpL16-k0 = 100
4,B4,39 GpH7-B3/GpL16-k0 = 100
5,B5,19 GpH7-B3/GpL16-k0 = 100
6,B6,33 GpH7-B3/GpL16-k0 = 100
7,B7,12 GpH7-B3/GpL16-k0 = 100
8,B8,5 GpH7-B3/GpL16-k0 = 100
9,B9,7 GpH7-B3/GpL16-k0 = 100
10,B10,2 GpH7-B3/GpL16-k0 = 100
11,B11,49 GpH7-B3/GpL16-k0 = 100
12,B13,17 GpH7-B3/GpL16-k0 = 100
13,B14,50 GpH7-B3/GpL16-k0 = 100
14,B15,76 GpH7-B3/GpL16-k0 = 100
15,B17,11 GpH7-B3/GpL16-k0 = 100
16,B18,62 GpH7-B3/GpL16-k0 = 100
17,B20,6 GpH7-B3/GpL16-k0 = 100
18,B21,11 GpH7-B3/GpL16-k0 = 100
19,B22,13 GpH7-B3/GpL16-k0 = 100
20,B23,23 GpH7-B3/GpL16-k0 = 100
